Experimental data from US20180325981A1 (published 2018).
Square brackets hold non-standard residues; d marks the D form. Nva = CCC[C@H](N)C(=O)O

T1: purified recombinant ADIPOR1 (A88) (UniProt Q96A54 89-375)
T1 construct: range 89-375; Expressed in SF9 cells by baculovirus, solubilised in DDM, purified on anti-Flag beads (eluted with Flag peptide) and by size exclusion as monomer; amine-coupled to a CM5 chip; also called adiponectin receptor 1; adiponectin receptor ADIPOR1; not shown: Flag tag at the N-terminus
T1 sequence: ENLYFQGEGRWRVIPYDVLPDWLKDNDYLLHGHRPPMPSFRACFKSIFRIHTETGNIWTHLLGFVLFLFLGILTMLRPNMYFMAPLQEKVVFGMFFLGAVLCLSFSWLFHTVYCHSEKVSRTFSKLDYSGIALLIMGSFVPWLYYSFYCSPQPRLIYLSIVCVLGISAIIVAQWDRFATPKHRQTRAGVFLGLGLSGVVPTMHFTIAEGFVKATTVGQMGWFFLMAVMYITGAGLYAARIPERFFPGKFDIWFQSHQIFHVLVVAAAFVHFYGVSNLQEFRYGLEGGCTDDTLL

B1: peptide 4-4 (peptide)
peptide: FYFAYHPNIPGLFYF
notes: Synthetic 4th round agonist peptide
B2: 3-3 (peptide)
peptide: NIPGLWYFAY
notes: 3rd round synthetic peptide; also called peptide 3-3
B3: 3-4 (peptide)
peptide: NIPGLFYFAY
notes: 3rd round synthetic peptide; also called peptide 3-4
B4: reference peptide ADP355 (peptide)
peptide: H-[dN]IP[Nva]LY[dS]FA[dS]-NH2
SMILES: CCC[C@H](NC(=O)[C@@H]1CCCN1C(=O)[C@@H](NC(=O)[C@H](N)CC(N)=O)[C@@H](C)CC)C(=O)N[C@@H](CC(C)C)C(=O)N[C@@H](Cc1ccc(O)cc1)C(=O)N[C@H](CO)C(=O)N[C@@H](Cc1ccccc1)C(=O)N[C@@H](C)C(=O)N[C@H](CO)C(N)=O
B5: peptide 3-1 (peptide)
peptide: YYFAYHPNIPGLYYF
notes: Synthetic 3rd round agonist peptide designed for the adiponectin receptor
B6: peptide 4-3 (peptide)
peptide: WYFAYHPNIPGLWYF
notes: as for B1

Tests used:
[1] = biological target: T1, purified recombinant ADIPOR1 (A88); assay: SPR, ADIPOR1 amine-coupled to CM5 chip, peptide injected
Protocol: (§1) In order to analyze the binding force between peptide and ADIPOR1, a purified recombinant ADIPOR1 (A88) was bound to a CM5 chip with 3000 RU or higher through amine coupling. Peptide was diluted with a running buffer (0.1% DDM, 0.005% CHS, 10 mM HEPES, 150 mM NaCl with pH 7.4) and injected into a SPR instrument at various concentrations to analyze the binding force. The affinity value was calculated using the affinity fitting or kinetics fitting method. In order to analyze peptide solubility, peptide stocks were prepared with DMSO, diluted in an appropriate buffer, and then undissolved precipitates were removed. The peptide concentrations were calculated by measuring the […] and A280 absorbance of each peptide.
With reference to FIGS. 3 and 4, surface plasmon resonance (SPR) experiments were performed in the present invention to measure the dissociation constant between the agonist peptide and the adiponectin receptor, particularly adiponectin receptor 1 (ADIPOR1). First, an expressed and purified adiponectin receptor ADIPOR1 was immobilized and its dissociation constant from candidate peptides was measured over a total of 4 rounds.

[2] = biological target: T1, purified recombinant ADIPOR1 (A88); assay: SPR; recombinant ADIPOR1 amine-coupled to a CM5 chip, peptide injected
Protocol: as §1

[3] = biological target: purified recombinant ADIPOR1 (A88) (UniProt Q96A54); assay: SPR, immobilised ADIPOR1

Row | Binder | Kd [1] [µM] | Kd [2] [µM] | also measured
1 | B1 | 2 to 4.3 |  | 
2 | B2 |  | 30.7 | 
3 | B3 |  | 23.2 | 
4 | B4 |  |  | Kd [3]: > 100 µM
5 | B5 | ≤ 16 |  | 
6 | B6 | 6 to 10 |  | 
